Legend:
Experiment in all cases: malachite green Pi release
Assay type in all cases: biochemical, Arabidopsis thaliana
Conditions in all cases: pH 7.2, 30 °C, 100 mM KCl, 0.8 mM MgCl2
[1] = substrate: O=P(O)(O)O[C@@H]1[C@@H](OP(=O)(O)OP(=O)(O)O)[C@H](OP(=O)(O)O)[C@@H](OP(=O)(O)O)[C@@H](O)[C@H]1OP(=O)(O)O
[2] = substrate: O=P(O)(O)O[C@@H]1[C@@H](OP(=O)(O)O)[C@H](OP(=O)(O)OP(=O)(O)O)[C@@H](OP(=O)(O)O)[C@H](OP(=O)(O)OP(=O)(O)O)[C@@H]1OP(=O)(O)O
[3] = substrate: O=P(O)(O)O[C@H]1[C@@H](OP(=O)(O)O)[C@H](OP(=O)(O)O)[C@@H](OP(=O)(O)OP(=O)(O)O)[C@H](OP(=O)(O)O)[C@H]1OP(=O)(O)O

B1: AtPFA-DSP1 (full-length) (Arabidopsis thaliana) (protein)
chain: MKLVEKTTTTEQDNGEDFCRTIIEVSEVNRNVFQAPGGEADPFRVVSGEELHLIPPLNFSMVDNGIFRSGFPDSANFSFLQTLGLRSIIYLCPEPYPESNLQFLKSNGIRLFQFGIEGNKEPFVNIPDHKIRMALKVLLDEKNHPVLIHCKRGKHRTGCLVGCLRKLQKWCLTSIFDEYQRFAAAKARVSDQRFMEIFDVSSFSHIPMSFSCSIR
notes: full-length (codon-optimized cDNA, Genscript); pDest-566, N-terminal 6xHis-MBP tag cut with TEV protease; E. coli
In the case of B1, the Km [1] is reported as 78 µM, the Km [2] is reported as 44 µM and the Km [3] is reported as 60 µM.

— PMC9038691, “A structural exposé of noncanonical molecular reactivity within the protein tyrosine phosphatase WPD loop” (Nature communications, 2022)
